# Measurements published in patent publication US20230015291.
# B1: recombinant wild-type human DNase1 (protein)
# chain: LKIAAFNIQTFGETKMSNATLVSYIVQILSRYDIALVQEVRDSHLTAVGKLLDNLNQDAPDTYHYVVSEPLGRNSYKERYLFVYRPDQVSAVDSYYYDDGCEPCGNDTFNREPAIVRFFSRFTEVREFAIVPLHAAPGDAVAEIDALYDVYLDVQEKWGLEDVMLMGDFNAGCSYVRPSQWSSIRLWTSPTFQWLIPDSADTTATPTHCAYDRIVVAGMLLRGAVVPDSALPFNFQAAYGLSDQLAQAISDHYPVEVMLK
# Biological target: rabbit skeletal muscle actin protein (Cytoskeleton, Denver, Colo., Catalog #AKL99-A), P68135
protein,measurement,value
B1,"nuclease activity, SYTOX Green fluorescence assay (RFU over time), 4.5 nM enzyme with or without 40 ug/ml actin",The nuclease activity of the recombinant human DNase1 was inhibited by actin
